What was measured:
[1] = CD measurement of SAPD stability in plasma/serum environments; format: physicochemical, rat; conditions: for change of CD absorptions versus aqueous solution: 200 μM in rat plasma, FBS, mice plasma, aged overnight
Experimental: CD measurement of SAPDs in physiological environments. Stock solutions of SAPDs were prepared at 2 mM and aged overnight. The solutions were diluted to 200 μM in 10% fetal bovine serum (FBS), 10% mice plasma and 10% rat plasma, aged overnight before CD measurement. To study the kinetic stability of the assembled SAPDs upon dilution, the stock solutions of SAPD 1 and 2 were diluted to 100 μM, 50 μM, 25 μM, 10 μM, and 5 μM in 10% rat plasma. The CD spectra were recorded at 5 min, 1 h, 4 h, and 12 h. All the CD spectra were recorded from 300 to 450 nm using a 1 mm path length quartz cell. The spectra were collected and normalized from ellipticity (mdeg) to molar ellipticity (deg·cm2·dmol^−1).
Stability of SAPDs in Protein Environments. The interactions of nanoparticles with serum proteins are known to impact the disassociation of supramolecular assemblies in biologically relevant environment. To assess the stability of assembled SAPDs in more complex biological media, we performed CD experiments to investigate their long-term stability in various serum environments. SAPDs solutions (2 mM) were diluted using rat plasma (FIG. 21C), fetal bovine serum (FBS), and mice plasma to yield a final concentration of 200 μM, which were then aged overnight before CD measurement was taken. […] We also performed experiments to assess their kinetic stability upon plasma dilution, mimicking the dissociation process of SPs after intravenous injection. Solutions of SAPD 1 and 2 (2 mM) were diluted to 100 μM, 50 μM, 25 μM, 10 μM, and 5 μM in rat plasma, and time-dependent CD spectra were recorded at 5 min, 1 h, 4 h, and 12 h. […] At 12 h, the decrease reached 22% and 33%, respectively.

[2] = Drug release and chemical stability of SAPDs in PBS with or without GSH; format: physicochemical; conditions: for prodrug degraded / conjugates remaining intact: 200 μM; for prodrug degraded: 37° C., 10 mM GSH, within 5 min; for remaining drugs / conjugates remaining intact: without GSH; for remaining drugs: 96 h; for conjugates remaining intact: 120 h
Experimental: Drug release and chemical stability studies of SAPDs. Drug release studies of four SAPDs were performed at a concentration of 200 μM in PBS buffer with or without the reducing agent glutathione (GSH). Briefly, 400 μM stock solutions of SAPDs in water were prepared and aged overnight. Stock solutions containing 2×PBS (20 mM) with or without 20 mM GSH were prepared 1 h before the experiment, and the pH was tuned to 7.4 with NaOH. The prodrug solutions were further diluted to 200 μM with 20 mM (2×) PBS buffer with or without GSH (20 mM) to give final solutions of 200 μM prodrug, 10 mM PBS and with or without 10 mM GSH. Three replicates of each SAPD were prepared with or without GSH and were incubated at 37° C. Samples with GSH were collected at 0 min, 5 min, 10 min, 15 min, 30 min, 1 h and 2 h, while samples without GSH were collected at 0 h, 6 h, 12 h, 24 h, 48 h, 72 h, 96 h and 120 h. To prevent further reaction after sample collection, the collected samples (50 μL each point) were acidified by adding 0.2 μL of 2M HCl, frozen with liquid nitrogen and stored at −30° C. The release profile was determined by analytical RP-HPLC using the following conditions: Varian Pursuit XRs C18 (5 μm, 150×4.6 mm); 362 nm detection wavelength; 1 mL/min flow rate; the gradient began at 15% to 85% acetonitrile containing 0.1% TFA by 15 min and back to initial gradient at 18 min. The calculated data points were plotted as a percentage of the total CPT concentration against time. Representative HPLC traces over time were also integrated for comparison.

[3] = Critical micellization concentration (CMC) via Nile Red encapsulation; format: physicochemical; conditions: SAPDs, PBS buffer, Nile Red method
Experimental: Nile Red is a hydrophobic, solvatochromic dye that fluoresces intensely upon exposure to hydrophobic environments compared with its strongly quenched and red-shifted fluorescence in aqueous environments. The CMC of the TTs was determined by incubating these molecules at various concentrations with a fixed content of Nile Red. 10 μL of a 1 mM Nile Red stock solution in acetone was added to each microcentrifuge tube to be used, with the acetone allowed to evaporate in a dark area. TT solutions of various concentrations were subsequently added to the Nile Red containing tubes and equilibrated overnight. The emission spectrum for each sample was then recorded on a Fluorolog spectrofluorometer (Horiba Jobin Yvon Inc., Edison, N.J.), acquiring between 580 and 720 nm with an excitation wavelength of 550 nm.
CMC Measurement of SAPDs of TT1. We next assessed the CMC values for each of the designed SAPDs in aqueous solution. […] Experimentally, the CAC is often measured using spectrometry techniques such as circular dichroism (CD) to reveal the presence of intermolecular associations and packing at a much lower concentration. In the case reported here, the CMC values were measured in the PBS buffer using Nile Red as a probe, which fluoresces intensely in hydrophobic environments and is strongly quenched and red-shifted in aqueous media. […]

[4] = TEM / cryo-TEM imaging of self-assembled nanostructures (dimensions); format: physicochemical; conditions: 2 mM in water
[5] = test system: human glioblastoma U87 MG cells; assay: Antitumor efficacy study for systemic delivery, subcutaneous U87 MG tumor; format: in vivo, athymic nude mice; conditions: for mean tumor volume: three weeks after treatment
Experimental: A total of 2×10^6 human glioblastoma U87 MG cells were subcutaneously injected into the right shoulder of athymic nude mice (8-9 weeks old). The mice were used for the efficacy study after three to four weeks when the tumor had reached about 190-250 mm^3 in size. […]. Water insoluble free CPT was dissolved/suspended in a mixture of DMSO/ethanol/PEG-400/water (1:1:2:1). CPT (4.5 mg/kg) and irinotecan (60 mg/kg) were administered by intraperitoneal injection, while freshly prepared TT 1 solutions of various doses were administered intravenously by tail vein injection every 4 days for a total of three doses (days 1, 5, and 9). […]. Tumor volumes were measured and recorded every other day. The body weights were measured and recorded every day or every other day. The tumor volume was determined by measuring the tumor in two dimensions with calipers and using the formula “tumor volume=(length×width^2)/2”. Each animal was euthanized once the tumor volume reached the predetermined end point size of 2000 mm^3.

Compound | change of CD absorptions versus aqueous solution [1] | prodrug degraded [2] [%] | remaining drugs [2] [%] | CMC [3] [µM] | drop of CD absorption at 389 nm ([1]; 5 μM in rat plasma, 5 min) [%] | drop of CD absorption at 389 nm ([1]; 5 μM in rat plasma, 12 h) [%] | drop of CD absorption at 389 nm ([1]; 10 μM in rat plasma, 5 min) [%] | drop of CD absorption at 389 nm ([1]; 10 μM in rat plasma, 12 h) [%] | stability upon dilution over time ([1]; rat plasma, concentrations above 25 μM) | conjugates remaining intact [2] [%] | diameter of supramolecular filaments [4] | median survival ([5]; TT 1 4.5 mg/kg (CPT equivalent) i.v. days 1, 5, 9) [days] | tumor volume ([5]; TT 1 4.5 mg/kg, up to 15 days) [mm^3] | survival of four out of five mice ([5]; TT 1 9 mg/kg) | median survival ([5]; TT 1 9 mg/kg i.v. days 1, 5, 9) [days] | mean tumor volume ([5]; TT 1 9 mg/kg) [mm^3] | survival of four out of five mice ([5]; TT 1 15 mg/kg) [days] | median survival ([5]; TT 1 15 mg/kg i.v. days 1, 5, 9) [days] | mean tumor volume ([5]; TT 1 15 mg/kg) [mm^3] | length of filaments (majority) [4]
CC[C@]1(OC(=O)OCCSSC[C@@H](NC(C)=O)C(=O)N[C@@H](CCCCNC(=O)[C@@H](CSSCCOC(=O)O[C@]2(CC)C(=O)OCc3c2cc2n(c3=O)Cc3cc4ccccc4nc3-2)NC(C)=O)C(=O)N[C@@H](CCCCNC(=O)CCOCCOCCOCCOCCOC)C(=O)N[C@@H](CCCCNC(=O)CCOCCOCCOCCOCCOC)C(=O)N[C@@H](CCCCNC(=O)CCOCCOCCOCCOCCOC)C(=O)N[C@@H](CCCCNC(=O)CCOCCOCCOCCOCCOC)C(=O)N[C@@H](CCCCNC(=O)CCOCCOCCOCCOCCOC)C(=O)N[C@@H](CCCCNC(=O)CCOCCOCCOCCOCCOC)C(N)=O)C(=O)OCc2c1cc1n(c2=O)Cc2cc3ccccc3nc2-1 [SAPD 3] | some slight changes | 93 | 63 | – | – | – | – | – | – | – | – | – | – | – | – | – | – | – | – | –
CC[C@]1(OC(=O)OCCSSC[C@@H](NC(C)=O)C(=O)N[C@@H](CCCCNC(=O)[C@@H](CSSCCOC(=O)O[C@]2(CC)C(=O)OCc3c2cc2n(c3=O)Cc3cc4ccccc4nc3-2)NC(C)=O)C(=O)N[C@@H](CCCCNC(=O)CCOCCOCCOCCOCCOC)C(=O)N[C@@H](CCCCNC(=O)CCOCCOCCOCCOCCOC)C(N)=O)C(=O)OCc2c1cc1n(c2=O)Cc2cc3ccccc3nc2-1 [TT 1] | no noticeable changes | 8 | 95 | 2.7 | 15 | 33 | 10 | 22 | highly stable | 96 | around 9 nm | 23 | 417 | up to 37 d | 37 | 94 | ≤ 43 | 43 | 59 | –
CC[C@]1(OC(=O)OCCSSC[C@@H](NC(C)=O)C(=O)N[C@@H](CCCCNC(=O)[C@@H](CSSCCOC(=O)O[C@]2(CC)C(=O)OCc3c2cc2n(c3=O)Cc3cc4ccccc4nc3-2)NC(C)=O)C(=O)N[C@@H](CCCCNC(=O)CCOCCOCCOCCOCCOC)C(=O)N[C@@H](CCCCNC(=O)CCOCCOCCOCCOCCOC)C(=O)N[C@@H](CCCCNC(=O)CCOCCOCCOCCOCCOC)C(=O)N[C@@H](CCCCNC(=O)CCOCCOCCOCCOCCOC)C(N)=O)C(=O)OCc2c1cc1n(c2=O)Cc2cc3ccccc3nc2-1 [SAPD 2] | no noticeable changes | 45 | 86 | 10.1 | – | – | – | – | – | 87 | – | – | – | – | – | – | – | – | – | less than 400 nm
CC[C@]1(OC(=O)OCCSSC[C@@H](NC(C)=O)C(=O)N[C@@H](CCCCNC(=O)[C@@H](CSSCCOC(=O)O[C@]2(CC)C(=O)OCc3c2cc2n(c3=O)Cc3cc4ccccc4nc3-2)NC(C)=O)C(=O)N[C@@H](CCCCNC(=O)CCOCCOCCOCCOCCOC)C(=O)N[C@@H](CCCCNC(=O)CCOCCOCCOCCOCCOC)C(=O)N[C@@H](CCCCNC(=O)CCOCCOCCOCCOCCOC)C(=O)N[C@@H](CCCCNC(=O)CCOCCOCCOCCOCCOC)C(=O)N[C@@H](CCCCNC(=O)CCOCCOCCOCCOCCOC)C(=O)N[C@@H](CCCCNC(=O)CCOCCOCCOCCOCCOC)C(=O)N[C@@H](CCCCNC(=O)CCOCCOCCOCCOCCOC)C(=O)N[C@@H](CCCCNC(=O)CCOCCOCCOCCOCCOC)C(N)=O)C(=O)OCc2c1cc1n(c2=O)Cc2cc3ccccc3nc2-1 [SAPD 4] | some slight changes | 92 | 61 | – | – | – | – | – | – | – | – | – | – | – | – | – | – | – | – | –

— patent US20220211858A1, “TUBULAR SUPRAMOLECULAR POLYMERS” (priority 2019, published 2022)
